Data set [1] has as its target T1, alpha-Galactosidase-digested alpha2-macroglobulin glycoprotein (from volunteer 4) (human, UniProt P01023 24-1474, terminal alpha-galactose removed with alpha-galactosidase).
T1 construct: mature; also called alpha-Galactosidase-digested glycoprotein from volunteer 4; treated fractions containing principally alpha2-macroglobulin
T1 sequence (looked up): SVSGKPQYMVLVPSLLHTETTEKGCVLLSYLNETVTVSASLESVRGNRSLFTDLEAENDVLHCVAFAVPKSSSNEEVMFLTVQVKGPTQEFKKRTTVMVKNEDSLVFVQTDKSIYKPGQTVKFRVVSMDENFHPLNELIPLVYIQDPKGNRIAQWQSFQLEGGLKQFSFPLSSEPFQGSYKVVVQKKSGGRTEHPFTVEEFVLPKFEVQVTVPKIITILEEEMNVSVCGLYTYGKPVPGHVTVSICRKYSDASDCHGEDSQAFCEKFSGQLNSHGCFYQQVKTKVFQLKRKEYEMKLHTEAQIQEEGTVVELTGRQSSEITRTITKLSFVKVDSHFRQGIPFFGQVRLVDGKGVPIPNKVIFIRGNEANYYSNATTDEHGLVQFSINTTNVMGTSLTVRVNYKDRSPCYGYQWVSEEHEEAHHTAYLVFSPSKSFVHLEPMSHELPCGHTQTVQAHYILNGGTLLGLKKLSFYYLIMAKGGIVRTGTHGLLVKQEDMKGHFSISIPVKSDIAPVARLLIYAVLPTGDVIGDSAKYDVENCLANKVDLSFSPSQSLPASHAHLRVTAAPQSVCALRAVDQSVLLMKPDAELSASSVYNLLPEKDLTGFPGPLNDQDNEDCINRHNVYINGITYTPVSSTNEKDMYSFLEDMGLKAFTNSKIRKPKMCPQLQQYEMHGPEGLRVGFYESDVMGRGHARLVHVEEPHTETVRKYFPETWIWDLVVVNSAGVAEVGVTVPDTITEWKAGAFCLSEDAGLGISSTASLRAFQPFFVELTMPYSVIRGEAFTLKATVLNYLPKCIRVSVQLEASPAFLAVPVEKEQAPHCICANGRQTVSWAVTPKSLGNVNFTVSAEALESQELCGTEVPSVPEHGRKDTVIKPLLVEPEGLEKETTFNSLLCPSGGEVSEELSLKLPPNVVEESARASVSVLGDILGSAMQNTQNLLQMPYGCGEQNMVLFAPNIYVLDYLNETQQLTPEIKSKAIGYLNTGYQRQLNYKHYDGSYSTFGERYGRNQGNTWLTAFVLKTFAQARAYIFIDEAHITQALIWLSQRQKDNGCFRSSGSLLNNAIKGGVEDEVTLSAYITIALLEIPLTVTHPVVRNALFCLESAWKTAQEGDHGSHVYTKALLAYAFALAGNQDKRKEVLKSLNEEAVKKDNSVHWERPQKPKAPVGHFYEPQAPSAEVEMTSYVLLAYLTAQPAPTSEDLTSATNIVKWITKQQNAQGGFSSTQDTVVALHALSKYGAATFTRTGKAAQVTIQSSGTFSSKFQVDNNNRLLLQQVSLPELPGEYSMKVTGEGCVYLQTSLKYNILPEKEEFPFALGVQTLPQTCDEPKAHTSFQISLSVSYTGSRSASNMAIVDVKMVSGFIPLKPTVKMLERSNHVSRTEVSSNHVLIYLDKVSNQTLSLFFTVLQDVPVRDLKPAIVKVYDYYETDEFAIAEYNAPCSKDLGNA
In words: agar gel diffusion, precipitin.

Data set [2] deals with T2, Asialofetuin (UniProt P12763 19-359, desialylated glycans with terminal Gal-beta-1,4-GlcNAc).
T2 sequence (looked up): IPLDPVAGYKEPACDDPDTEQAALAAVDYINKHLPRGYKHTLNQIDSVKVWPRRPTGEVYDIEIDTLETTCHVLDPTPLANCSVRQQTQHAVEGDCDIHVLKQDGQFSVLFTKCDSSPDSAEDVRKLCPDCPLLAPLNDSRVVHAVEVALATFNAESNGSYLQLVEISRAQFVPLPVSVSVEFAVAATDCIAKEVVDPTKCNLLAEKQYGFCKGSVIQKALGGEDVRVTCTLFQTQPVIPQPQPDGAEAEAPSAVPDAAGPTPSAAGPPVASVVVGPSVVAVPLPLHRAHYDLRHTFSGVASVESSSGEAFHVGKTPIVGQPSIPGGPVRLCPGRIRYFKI
In words: affinity chromatography on MOA-Sepharose 4B, PBS wash then elution with 20 mM 1,3-diaminopropane in 0.15 M NaCl, A280 of 1 ml fractions.

The nature of data set [3]: Solubility and activity of salt-free lyophilisates. Type of data set: physicochemical. On the procedure:
Purification of recombinant MOA and native intact MOA-Recombinant MOA was purified from the soluble fraction by absorption on a column of melibiose-Sepharose and elution by lactose. Further purification was carried out on an affinity column of Synsorb B. Except for the diaminopropane elution, all affinity purifications were carried out in PBS, pH 7.2, containing 1.25 mM EDTA. After purification, lectin solutions were dialyzed against distilled water and lyophilized. […] Intact native MOA was prepared with a purification procedure (Example 2) that utilized a protease inhibitor cocktail (product P8215, Sigma, St. Louis, Mo.) which was added at the level of 0.1 ml/100 ml extract buffer (instead of phenylmethylsulfonyl fluoride), all buffers lacked Ca^++ and contained 1.25 mM EDTA, and the initial extraction and ammonium sulfate fractionations were carried out under an atmosphere of argon.

In data set [4] the test system is Cultured Ehrlich ascites tumor cells. Nature of the data set: Agglutination of cells by Marasmius oreades lectin. The data set is classed as cell-based. Here is the method: (§1) In some embodiments, blood group specificity of MOA is determined in hemagglutination assays (see Examples below). Briefly, formaldehyde-treated erythrocytes in V-well microtitre plates are used in a protocol as described in Mo et al. [J. Biol. Chem 275:10623 (2000)], herein incorporated by reference. […] Example 3, below, presents the data for agglutination activity against a variety of cell types. […] Biochemistry 22: 5290 (1983)].
(§2) Hemagglutination assays were carried out using formaldehyde-treated erythrocytes in V-well microtitre plates as described by Mo et al. [J. Biol. Chem 275:10623 (2000)], herein incorporated by reference. Titres were recorded as the greatest dilution of the lectin solution yielding visible agglutination. Agglutination of Ehrlich ascites tumor cells (grown in in vitro culture) was observed microscopically.
(§3) Hemagglutination activity was unchanged by extensive dialysis of the lectin and assay in metal-free buffer containing EDTA, indicating the absence of a divatent metal ion requirement. As noted in Example 2, subsequent assays and purifications routinely used metal-free buffers containing EDTA.

Data set [5] concerns Human A erythrocytes. In words: Agglutination of cells by Marasmius oreades lectin. The data set is classed as cell-based. The conditions noted are these: human type A erythrocytes. On the procedure: as §1, §2, §3
Data set [6] concerns Human B erythrocytes. In words: Agglutination of cells by Marasmius oreades lectin. The data set is classed as cell-based. On the procedure: as §1, §2, §3
Data set [7] relates to Human O erythrocytes. In words: Agglutination of cells by Marasmius oreades lectin. The conditions noted are these: human type O erythrocytes. Type of data set: cell-based. Here is the method: as §1, §2, §3

B1: Lotus lectin (other, UniProt P19664 1-240, looked up)
chain: VSFNYTEFKDDGSLILQGDAKIWTDGRLAMPTDPLVNNPKTTRSAGRALYATPVPIWDSATGNVASFVTSFNFLFVIRELKYTPTDGLVFFLAPVGTEIPSGSTGGFLGIFDGSNGFNQFVAVEFDSYHNIWDPKSLRSSHVGIDVNSIMSLKAVNWNRVSGSLEKATIIYDSQTNILSVVMTSQNGQITTIYGTIDLKTVLPEKVSVGFSATTGNPEREKHDIYSWSFTSTLKEPEEQA
Consider B1, for which, in data set [1], the binding result is recorded as “no binding”.

B2: Intact native Marasmius oreades agglutinin (MOA) prepared by the method of Example 2 (other)
chain: MSLRRGIYHIENAGVPSAIDLKDGSSSDGTPIVGWQFTPDTINWHQLWLAEPIPNVADTFTLCNLFSGTYMDLYNGSSEAGTAVNGWQGTAFTTNPHQLWTIKKSSDGTSYKIQNYGSKTFVDLVNGDSSDGAKIAGWTGTWDEGNPHQKWYFNRMSVSSAEAQAAIARNPHIHGTYRGYILDGEYLVLPNATFTQIWKDSGLPGSKWREQIYDCDDFAIAMKAAVGKWGADSWKANGFAIFCGVMLGVNKAGDAAHAYNFTLTKDHADIVFFEPQNGGYLNDIGYDSYMAFY
modifications: blocked N-terminus (possibly N-acetyl)
notes: also called native MOA; immobilized MOA
As for B2, the binding result in data set [2] is listed as “no binding”.

B3: Recombinant MOA: MOA expressed in E. coli from a pT7 vector and affinity purified (protein)
chain: B2 chain
For the molecule B3, in data set [3] (distilled water or buffer), the “solubility of salt-free lyophilisates” value is on record as “readily soluble”. Also, in data set [3] (redissolved lyophilisates), the “agglutinating activity after lyophilisation” value is “retention of full agglutinating activity”.

B4: MOA: M. oreades lectin (agglutinin) with binding specificity for Galα1,3Gal; single polypeptide of approximately 33 kDa (protein)
chain: B2 chain
Consider B4, for which the “agglutination” value in data set [4] is listed as “readily agglutinated”. Moreover, the “hemagglutination activity” value in data set [5] was “very little activity”; in data set [6] it was “Strong”; in data set [7], “very little activity”.

B5: Ulex europaeus I lectin (other, UniProt P22972 1-243, looked up)
chain: SDDLSFKFKNFSQNGKDLSFQGDASVIETGVLQLNKVGNNLPDETGGIARYIAPIHIWNCNTGEVASFITSFSFFMETSANPKAATDGLTFFLAPPDSPLRRAGGYFGLFEDTKDNDSSYQTVAVEFDTIGSPVNFDDPGFPHIGIDVNRVKSINAERWNKRYGLNNVANVEIIYEASSKTLTASLTYPSDQTSISVTSIVDLKEILPEWVSVGFSGGTYIGRQATHEVLNWYFTSNLINTNS
notes: also called Ulex I
Consider B5, for which the binding result in data set [1] is “binds”.

(Values after patent US6958321B2, “Isolation, characterization, cloning and use of a mushroom lectin” (The Regents of the University of Michigan, priority 2001, dated 2005).)
